Laboratory results published in the supplement of paper PMC6757056.
± gives the standard deviation of the averaged measurements.

B1: library; a variant is named by its letters at N, in order (parent)
chain: GCUGUCACCGGUGUAUUACCCUAGUGGUCGACCGGUCUGAUGAGUCUNNNNNNAGACGAAACAGC

How the values were obtained:
hypoxanthine [1] = variants of: B1; assay: FACS-Seq fitted mean relative fluorescence mCherry/BFP without ligand (log10 relative fluorescence); ligand: hypoxanthine (xanthine aptamer); higher = higher reporter protein expression; settings: HEK293T, ligand present: no
Summary of the method: (§1)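 Genomic DNA from 6 mCherry/BFP sort bins was PCR-amplified, barcoded and sequenced on MiSeq. The sorted cells were enriched HEK293T libraries, lentivirally transduced with a ribozyme-switch mCherry reporter and an EF1α-BFP marker, incubated with or without ligand for 48 h. Fluorescence derives from a normal fit to the bin counts. The fit was on log10(mCherry/BFP), and means were scaled to five spiked-in control ribozymes.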

hypoxanthine [2] = variants of: B1; assay: normalized RNA/DNA level with ligand (relative to sTRSVctl = 100) (log10 (% of sTRSVctl)); ligand: hypoxanthine (xanthine aptamer); higher = less ribozyme self-cleavage, higher mRNA level; settings: ligand concentration (+) RNA-Seq: 5 mM, HEK293T, reporter: mCherry (pCS4076), ligand present: yes
Protocol: (§2)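 Hammerhead (sTRSV) ribozyme switch libraries with a ligand aptamer grafted on stem I and a randomized N4-6 loop II, cloned into the 3' UTR of mCherry and transiently transfected into HEK293T cells; RNA-Seq 72 h post transfection with ligand added 1 h before transfection; RNA read count / plasmid DNA read count normalized to the non-cleaving sTRSVctl (x100), log10; sequences with >100 DNA reads. FACS-Seq: lentiviral library sorted into 6 bins after 48 h ligand, log-normal fit mean of mCherry/BFP scaled to controls. Printed sequences are partial switch sequences.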

hypoxanthine [3] = variants of: B1; assay: normalized RNA/DNA level without ligand (relative to sTRSVctl = 100) (log10 (% of sTRSVctl)); ligand: hypoxanthine (xanthine aptamer); higher = less ribozyme self-cleavage, higher mRNA level; settings: HEK293T, reporter: mCherry (pCS4076), ligand present: no
Protocol: as §2

hypoxanthine [4] = variants of: B1; assay: FACS-Seq fitted mean relative fluorescence mCherry/BFP with ligand (log10 relative fluorescence); ligand: hypoxanthine (xanthine aptamer); ligand concentration (+) FACS-Seq: 5 mM; higher = higher reporter protein expression; settings: HEK293T, ligand present: yes
Summary of the method: as §1

Row | Variant | FACS-Seq fitted mean (log10) (hypoxanthine [1]) | normalized RNA/DNA level with ligand (log10) (hypoxanthine [2]) | normalized RNA/DNA level without ligand (log10) (hypoxanthine [3]) | FACS-Seq fitted mean (log10) (hypoxanthine [4])
1 | GCUGUCACCGGUGUAUUACCCUAGUGGUCGACCGGUCUGAUGAGUCUGACACCAGACGAAACAGC | 0.458 ± 0.072 | 1.92 ± 0.022 | 1.8641 ± 0.00014 | 0.365 ± 0.049
2 | GCUGUCACCGGUGUAUUACCCUAGUGGUCGACCGGUCUGAUGAGUCUGACACGAGACGAAACAGC | 0.359 ± 0.011 | 1.9 ± 0.045 | 1.51 ± 0.018 | 0.695 ± 0.12
3 | GCUGUCACCGGUGUAUUACCCUAGUGGUCGACCGGUCUGAUGAGUCUCACAUAAGACGAAACAGC | 0.738 ± 0.084 | 1.91 ± 0.07 | 1.73 ± 0.047 | 0.656 ± 0.076
4 | GCUGUCACCGGUGUAUUACCCUAGUGGUCGACCGGUCUGAUGAGUCUUACAGCAGACGAAACAGC | 0.821 ± 0.21 | 1.96 ± 0.019 | 1.898 ± 0.013 | 0.655 ± 0.12
5 | GCUGUCACCGGUGUAUUACCCUAGUGGUCGACCGGUCUGAUGAGUCUUACAGGAGACGAAACAGC | 0.231 ± 0.044 | 1.838 ± 0.014 | 1.41 ± 0.035 | 0.661 ± 0.032
6 | GCUGUCACCGGUGUAUUACCCUAGUGGUCGACCGGUCUGAUGAGUCUUACAGAAGACGAAACAGC | 0.0904 ± 0.019 | 1.908 ± 0.018 | 1.54 ± 0.02 | 0.383 ± 0.04
7 | GCUGUCACCGGUGUAUUACCCUAGUGGUCGACCGGUCUGAUGAGUCUGACAUAAGACGAAACAGC | 0.382 ± 0.011 | 1.91 ± 0.027 | 1.79 ± 0.027 | 0.373 ± 0.037
8 | GCUGUCACCGGUGUAUUACCCUAGUGGUCGACCGGUCUGAUGAGUCUGACAUGAGACGAAACAGC | 0.405 ± 0.11 | 1.81 ± 0.032 | 1.4 ± 0.0058 | 0.472 ± 0.081
9 | GCUGUCACCGGUGUAUUACCCUAGUGGUCGACCGGUCUGAUGAGUCUUACAUGAGACGAAACAGC | -0.317 ± 0.071 | 1.93 ± 0.029 | 1.69 ± 0.018 | 0.0659 ± 0.069
10 | GCUGUCACCGGUGUAUUACCCUAGUGGUCGACCGGUCUGAUGAGUCUAACACGAGACGAAACAGC | 0.0502 ± 0.00077 | 1.85 ± 0.046 | 1.4 ± 0.045 | 0.412 ± 0.037
11 | GCUGUCACCGGUGUAUUACCCUAGUGGUCGACCGGUCUGAUGAGUCUAACACCAGACGAAACAGC | 0.754 ± 0.017 | 1.9322 ± 0.00016 | 1.9 ± 0.02 | 0.806 ± 0.073
12 | GCUGUCACCGGUGUAUUACCCUAGUGGUCGACCGGUCUGAUGAGUCUGACAGAAGACGAAACAGC | 0.4408 ± 0.00062 | 1.91 ± 0.038 | 1.65 ± 0.035 | 0.594 ± 0.088
13 | GCUGUCACCGGUGUAUUACCCUAGUGGUCGACCGGUCUGAUGAGUCUGACAGUAGACGAAACAGC | -0.268 ± 0.11 | 1.926 ± 0.0025 | 1.8 ± 0.045 | 0.146 ± 0.025
14 | GCUGUCACCGGUGUAUUACCCUAGUGGUCGACCGGUCUGAUGAGUCUGACAGGAGACGAAACAGC | -0.206 ± 0.16 | 1.765 ± 0.012 | 1.27 ± 0.033 | -0.557 ± 0.034
15 | GCUGUCACCGGUGUAUUACCCUAGUGGUCGACCGGUCUGAUGAGUCUGACAGCAGACGAAACAGC | 0.379 ± 0.028 | 1.965 ± 0.007 | 1.74 ± 0.084 | 0.554 ± 0.047
16 | GCUGUCACCGGUGUAUUACCCUAGUGGUCGACCGGUCUGAUGAGUCUCACACUAGACGAAACAGC | 0.146 ± 0.034 | 1.953 ± 0.0082 | 1.87 ± 0.036 | 0.266 ± 0.0029
17 | GCUGUCACCGGUGUAUUACCCUAGUGGUCGACCGGUCUGAUGAGUCUAACAGGAGACGAAACAGC | 0.1 ± 0.034 | 1.76 ± 0.042 | 1.291 ± 0.0056 | 0.57 ± 0.031
18 | GCUGUCACCGGUGUAUUACCCUAGUGGUCGACCGGUCUGAUGAGUCUAACAGAAGACGAAACAGC | 0.273 ± 0.058 | 1.907 ± 0.0091 | 1.642 ± 0.0026 | 0.322 ± 0.091
19 | GCUGUCACCGGUGUAUUACCCUAGUGGUCGACCGGUCUGAUGAGUCUAACAGUAGACGAAACAGC | -0.0447 ± 0.045 | 1.87 ± 0.047 | 1.54 ± 0.018 | 0.4214 ± 0.0042
20 | GCUGUCACCGGUGUAUUACCCUAGUGGUCGACCGGUCUGAUGAGUCUAACAUAAGACGAAACAGC | 0.665 ± 0.084 | 1.89 ± 0.021 | 1.801 ± 0.018 | 0.63 ± 0.035
21 | GCUGUCACCGGUGUAUUACCCUAGUGGUCGACCGGUCUGAUGAGUCUUACACUAGACGAAACAGC | -0.295 ± 0.069 | 1.911 ± 0.006 | 1.9 ± 0.0044 | -0.34 ± 0.0052
